Test results as given in patent publication US20210388087A1 (Chugai, published 2021).

B1: dBBDu183H P100eR / dBBDu072L (antibody, name in Kabat numbering, V domains shown)
VH: QVQLVESGGGLVQPGRSLRLSCAASGFTFSNAWMHWVRQAPGKGLEWVAQIKDKGNAYAAYYAPSVKGRFTISRDDSKNSIYLQMNSLKTEDTAVYYCHYVHYASASTVLRAFGVDAWGQGTTVTVSS
VL: DIVMTQSPLSLPVTPGEPASISCQASQELVHMNRNTYLHWYQQKPGQAPRLLIYKVSNRFPGVPDRFSGSGSGTDFTLKISRVEAEDVGVYYCAQGTSVPFTFGQGTKLEIK
notes: as m1, one VH change
B2: dBBDu183H S62T / dBBDu072L (antibody, name in Kabat numbering, V domains shown)
VH: QVQLVESGGGLVQPGRSLRLSCAASGFTFSNAWMHWVRQAPGKGLEWVAQIKDKGNAYAAYYAPTVKGRFTISRDDSKNSIYLQMNSLKTEDTAVYYCHYVHYASASTVLPAFGVDAWGQGTTVTVSS
VL: DIVMTQSPLSLPVTPGEPASISCQASQELVHMNRNTYLHWYQQKPGQAPRLLIYKVSNRFPGVPDRFSGSGSGTDFTLKISRVEAEDVGVYYCAQGTSVPFTFGQGTKLEIK
notes: as m1, one VH change
B3: dBBDu183H S62N / dBBDu072L (antibody, name in Kabat numbering, V domains shown)
VH: QVQLVESGGGLVQPGRSLRLSCAASGFTFSNAWMHWVRQAPGKGLEWVAQIKDKGNAYAAYYAPNVKGRFTISRDDSKNSIYLQMNSLKTEDTAVYYCHYVHYASASTVLPAFGVDAWGQGTTVTVSS
VL: DIVMTQSPLSLPVTPGEPASISCQASQELVHMNRNTYLHWYQQKPGQAPRLLIYKVSNRFPGVPDRFSGSGSGTDFTLKISRVEAEDVGVYYCAQGTSVPFTFGQGTKLEIK
notes: as m1, one VH change
B4: dBBDu183H S62E / dBBDu072L (antibody, name in Kabat numbering, V domains shown)
VH: QVQLVESGGGLVQPGRSLRLSCAASGFTFSNAWMHWVRQAPGKGLEWVAQIKDKGNAYAAYYAPEVKGRFTISRDDSKNSIYLQMNSLKTEDTAVYYCHYVHYASASTVLPAFGVDAWGQGTTVTVSS
VL: DIVMTQSPLSLPVTPGEPASISCQASQELVHMNRNTYLHWYQQKPGQAPRLLIYKVSNRFPGVPDRFSGSGSGTDFTLKISRVEAEDVGVYYCAQGTSVPFTFGQGTKLEIK
notes: as m1, one VH change
B5: dBBDu183H S62G / dBBDu072L (antibody, name in Kabat numbering, V domains shown)
VH: QVQLVESGGGLVQPGRSLRLSCAASGFTFSNAWMHWVRQAPGKGLEWVAQIKDKGNAYAAYYAPGVKGRFTISRDDSKNSIYLQMNSLKTEDTAVYYCHYVHYASASTVLPAFGVDAWGQGTTVTVSS
VL: DIVMTQSPLSLPVTPGEPASISCQASQELVHMNRNTYLHWYQQKPGQAPRLLIYKVSNRFPGVPDRFSGSGSGTDFTLKISRVEAEDVGVYYCAQGTSVPFTFGQGTKLEIK
notes: as m1, one VH change
B6: dBBDu183H P100eT / dBBDu072L (antibody, name in Kabat numbering, V domains shown)
VH: QVQLVESGGGLVQPGRSLRLSCAASGFTFSNAWMHWVRQAPGKGLEWVAQIKDKGNAYAAYYAPSVKGRFTISRDDSKNSIYLQMNSLKTEDTAVYYCHYVHYASASTVLTAFGVDAWGQGTTVTVSS
VL: DIVMTQSPLSLPVTPGEPASISCQASQELVHMNRNTYLHWYQQKPGQAPRLLIYKVSNRFPGVPDRFSGSGSGTDFTLKISRVEAEDVGVYYCAQGTSVPFTFGQGTKLEIK
notes: as m1, one VH change
B7: dBBDu183H S62K / dBBDu072L (antibody, name in Kabat numbering, V domains shown)
VH: QVQLVESGGGLVQPGRSLRLSCAASGFTFSNAWMHWVRQAPGKGLEWVAQIKDKGNAYAAYYAPKVKGRFTISRDDSKNSIYLQMNSLKTEDTAVYYCHYVHYASASTVLPAFGVDAWGQGTTVTVSS
VL: DIVMTQSPLSLPVTPGEPASISCQASQELVHMNRNTYLHWYQQKPGQAPRLLIYKVSNRFPGVPDRFSGSGSGTDFTLKISRVEAEDVGVYYCAQGTSVPFTFGQGTKLEIK
notes: as m1, one VH change
B8: dBBDu183H S62R / dBBDu072L (antibody, name in Kabat numbering, V domains shown)
VH: QVQLVESGGGLVQPGRSLRLSCAASGFTFSNAWMHWVRQAPGKGLEWVAQIKDKGNAYAAYYAPRVKGRFTISRDDSKNSIYLQMNSLKTEDTAVYYCHYVHYASASTVLPAFGVDAWGQGTTVTVSS
VL: DIVMTQSPLSLPVTPGEPASISCQASQELVHMNRNTYLHWYQQKPGQAPRLLIYKVSNRFPGVPDRFSGSGSGTDFTLKISRVEAEDVGVYYCAQGTSVPFTFGQGTKLEIK
notes: as m1, one VH change
B9: dBBDu183H S62V / dBBDu072L (antibody, name in Kabat numbering, V domains shown)
VH: QVQLVESGGGLVQPGRSLRLSCAASGFTFSNAWMHWVRQAPGKGLEWVAQIKDKGNAYAAYYAPVVKGRFTISRDDSKNSIYLQMNSLKTEDTAVYYCHYVHYASASTVLPAFGVDAWGQGTTVTVSS
VL: DIVMTQSPLSLPVTPGEPASISCQASQELVHMNRNTYLHWYQQKPGQAPRLLIYKVSNRFPGVPDRFSGSGSGTDFTLKISRVEAEDVGVYYCAQGTSVPFTFGQGTKLEIK
notes: as m1, one VH change
B10: dBBDu183H S62H / dBBDu072L (antibody, name in Kabat numbering, V domains shown)
VH: QVQLVESGGGLVQPGRSLRLSCAASGFTFSNAWMHWVRQAPGKGLEWVAQIKDKGNAYAAYYAPHVKGRFTISRDDSKNSIYLQMNSLKTEDTAVYYCHYVHYASASTVLPAFGVDAWGQGTTVTVSS
VL: DIVMTQSPLSLPVTPGEPASISCQASQELVHMNRNTYLHWYQQKPGQAPRLLIYKVSNRFPGVPDRFSGSGSGTDFTLKISRVEAEDVGVYYCAQGTSVPFTFGQGTKLEIK
notes: as m1, one VH change
B11: dBBDu183H P100eS / dBBDu072L (antibody, name in Kabat numbering, V domains shown)
VH: QVQLVESGGGLVQPGRSLRLSCAASGFTFSNAWMHWVRQAPGKGLEWVAQIKDKGNAYAAYYAPSVKGRFTISRDDSKNSIYLQMNSLKTEDTAVYYCHYVHYASASTVLSAFGVDAWGQGTTVTVSS
VL: DIVMTQSPLSLPVTPGEPASISCQASQELVHMNRNTYLHWYQQKPGQAPRLLIYKVSNRFPGVPDRFSGSGSGTDFTLKISRVEAEDVGVYYCAQGTSVPFTFGQGTKLEIK
notes: as m1, one VH change
B12: dBBDu183H S62F / dBBDu072L (antibody, name in Kabat numbering, V domains shown)
VH: QVQLVESGGGLVQPGRSLRLSCAASGFTFSNAWMHWVRQAPGKGLEWVAQIKDKGNAYAAYYAPFVKGRFTISRDDSKNSIYLQMNSLKTEDTAVYYCHYVHYASASTVLPAFGVDAWGQGTTVTVSS
VL: DIVMTQSPLSLPVTPGEPASISCQASQELVHMNRNTYLHWYQQKPGQAPRLLIYKVSNRFPGVPDRFSGSGSGTDFTLKISRVEAEDVGVYYCAQGTSVPFTFGQGTKLEIK
notes: as m1, one VH change
B13: dBBDu183H S62Q / dBBDu072L (antibody, name in Kabat numbering, V domains shown)
VH: QVQLVESGGGLVQPGRSLRLSCAASGFTFSNAWMHWVRQAPGKGLEWVAQIKDKGNAYAAYYAPQVKGRFTISRDDSKNSIYLQMNSLKTEDTAVYYCHYVHYASASTVLPAFGVDAWGQGTTVTVSS
VL: DIVMTQSPLSLPVTPGEPASISCQASQELVHMNRNTYLHWYQQKPGQAPRLLIYKVSNRFPGVPDRFSGSGSGTDFTLKISRVEAEDVGVYYCAQGTSVPFTFGQGTKLEIK
notes: as m1, one VH change
B14: dBBDu183H S62D / dBBDu072L (antibody, name in Kabat numbering, V domains shown)
VH: QVQLVESGGGLVQPGRSLRLSCAASGFTFSNAWMHWVRQAPGKGLEWVAQIKDKGNAYAAYYAPDVKGRFTISRDDSKNSIYLQMNSLKTEDTAVYYCHYVHYASASTVLPAFGVDAWGQGTTVTVSS
VL: DIVMTQSPLSLPVTPGEPASISCQASQELVHMNRNTYLHWYQQKPGQAPRLLIYKVSNRFPGVPDRFSGSGSGTDFTLKISRVEAEDVGVYYCAQGTSVPFTFGQGTKLEIK
notes: as m1, one VH change

Target: T1, Human CD137 ECD (human)
T1 construct: also called 4-1BB
T1 sequence (chain, as listed by the source limits assumed): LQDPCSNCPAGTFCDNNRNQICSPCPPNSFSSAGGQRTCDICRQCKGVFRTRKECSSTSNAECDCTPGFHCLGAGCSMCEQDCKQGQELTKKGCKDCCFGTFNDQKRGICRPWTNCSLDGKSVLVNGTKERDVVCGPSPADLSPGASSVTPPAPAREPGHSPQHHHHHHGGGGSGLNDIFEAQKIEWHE
Assay: SPR, vs parent H183/L072

Compared with B1, B2 is higher in “fold change of affinity” value: 0.3 fold for the first, 1 fold for the second.

First: B3
Second: B4
The “fold change of affinity” value of the first is higher: 0.9 fold for the first, 0.8 fold for the second.

First: B5
Second: B6
The “fold change of affinity” value of the first is higher: 1 fold for the first, 0.2 fold for the second.

First: B7
Second: B8
The “fold change of affinity” value of the first is lower: 0.9 fold for the first, 1.1 fold for the second.

B9 and B10 are the same in “fold change of affinity” value: 0.9 fold for the first, 0.9 fold for the second.

First: B11
Second: B12
The “fold change of affinity” value of the first is lower: 0.4 fold for the first, 0.5 fold for the second.

Going from B13 to B14, the “fold change of affinity” value falls from 1 fold to 0.9 fold.
